Measured values published in US20220282255, “APTAMER FOR TGF-BETA1 AND USE OF SAME” (RIBOMIC INC., published 2022).
Numbering of substitutions follows the chain as printed.

B1: SEQ ID NO: 17 (ssRNA)
RNA: GGGAGAACUUGGAGCUGAUGUCUGGAGUCCCCAUAUAUCACGUACAGUGUAGUGCGACGUCAGUC
modifications: 2'-F all pyrimidines (U,C)
B2: SEQ ID NO: 13 (ssRNA)
RNA: GGGAUCCGCAUCUAGAGUACACUAGUCACAUUGCGUGUACAUUACUCUGCGCAAUCGAUAAACGUCUACUGAAGCUAUCA
modifications: 2'-F all pyrimidines (U,C)
B3: SEQ ID NO: 27 (ssRNA)
RNA: GGGAAUGCACUAGUGUUCAACAUUUAGCAACACAAGUCGUCCCCCACGGCAAGCAGUCCUCAAUCCUGACAAGCUUGCACGUCGAGUCAG
modifications: 2'-F all pyrimidines (U,C)
B4: SEQ ID NO: 7 (ssRNA)
RNA: GGGAUCCGCAUCUAGAGUACGAAUAGUAAGGGAAUGACUCUCGGACCAAUGUAUUGCUAUAACGUCUACUGAAGCUAUCA
modifications: 2'-F all pyrimidines (U,C)
B5: SEQ ID NO: 8 (ssRNA)
RNA: GGGAUCCGCAUCUAGAGUACGAUGUGCUUGUGCUGAAAUUAGAUUUCGCCGACUUUCCCUAACGUCUACUGAAGCUAUCA
modifications: 2'-F all pyrimidines (U,C)
B6: SEQ ID NO: 12 (ssRNA)
RNA: GGGAUCCGCAUCUAGAGUACCUAGAGGUGACUUGGGACGCGAGUUAUAAGGGAAUAGUCCAACGUCUACUGAAGCUAUCA
modifications: 2'-F all pyrimidines (U,C)
B7: SEQ ID NO: 10 (ssRNA)
RNA: GGGAUCCGCAUCUAGAGUACGAUGCAUGUUUUUAUAAAGUAUUGUUAUGUAAUGCAUCAAAACGUCUACUGAAGCUAUCA
modifications: 2'-F all pyrimidines (U,C)
B8: SEQ ID NO: 26 (ssRNA)
RNA: GGGAAUGCACUAGUGUUCAACCCCGACCAAUAGCAGCCCGUCUUUAACUAUUGGAAUCGCAUACGGGCCCAAGCUUGCACGUCGAGUCAG
modifications: 2'-F all pyrimidines (U,C)
B9: SEQ ID NO: 9 (ssRNA)
RNA: GGGAUCCGCAUCUAGAGUACCAUAAGGGUGGGGAGACUUGGGAGAGGGCAAAGAAGACUAAACGUCUACUGAAGCUAUCA
modifications: 2'-F all pyrimidines (U,C)
B10: SEQ ID NO: 6 (ssRNA)
RNA: GGGAUCCGCAUCUAGAGUACUUGUAUAAGUGGAGGGCGAGACUUGGGAGGGGCGAAUUGAAACGUCUACUGAAGCUAUCA
modifications: 2'-F all pyrimidines (U,C)
B11: SEQ ID NO: 36 (ssRNA)
RNA: GGGAGAACUUGGAGCUCCUGAAUAAGGGAGGGGAGACUUGUGGAGGGCAAAAGUGCGACGUCAGUC
modifications: 2'-F all pyrimidines (U,C)
B12: SEQ ID NO: 40 (ssRNA)
RNA: B11 RNA with A50G
modifications: 2'-F all pyrimidines (U,C)
B13: SEQ ID NO: 35 (ssRNA)
RNA: B11 RNA with A51G
modifications: 2'-F all pyrimidines (U,C)
B14: SEQ ID NO: 37 (ssRNA)
RNA: B11 RNA with A44U, A51G
modifications: 2'-F all pyrimidines (U,C)
B15: SEQ ID NO: 38 (ssRNA)
RNA: B11 RNA with A29U, A51G
modifications: 2'-F all pyrimidines (U,C)
B16: SEQ ID NO: 4 (ssRNA)
RNA: GGGAUCCGCAUCUAGAGUACUAAGGGUGGGGAGACUUGGGCCGGGCAGUCAGACGCGUGAAACGUCUACUGAAGCUAUCA
modifications: 2'-F all pyrimidines (U,C)
B17: SEQ ID NO: 19 (ssRNA)
RNA: GGGAGAACUUGGAGCUCCCCCUCGCAUUCGGAUUAAUUUGUGACUGCAUUGAGUGCGACGUCAGUC
modifications: 2'-F all pyrimidines (U,C)

These binders were tested against T1, TGF-β1 (Homo sapiens, UniProt P01137 P01137:279-390) (assay: SPR; +). Settings: tags: Recombinant Human TGF-β1, Peprotech; chain copies: 2 (homodimer, inferred).
T1 sequence (P01137 279-390, one chain of several): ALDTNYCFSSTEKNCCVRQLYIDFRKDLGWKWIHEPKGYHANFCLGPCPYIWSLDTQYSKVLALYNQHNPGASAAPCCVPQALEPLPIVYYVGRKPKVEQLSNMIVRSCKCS

Row | Binder | binding result
1 | B1 | binds
2 | B2 | binds
3 | B3 | binds

The binders below were run against T1, TGF-β1 (assay: SPR). Settings: tags: Recombinant Human TGF-β1, Peprotech; chain copies: 2 (homodimer, inferred).

Row | Binder | qualitative
4 | B4 | ≤ 10 RU
5 | B5 | ≤ 10 RU
6 | B6 | ≤ 10 RU
7 | B7 | ≤ 10 RU

These binders were tested against T1, TGF-β1 (assay: SPR; receptor-binding inhibition, 10 nM:30 nM). Settings: tags: Recombinant Human TGF-β1, Peprotech; chain copies: 2 (homodimer, inferred).
Experimental: (§1) Measurement of Inhibitory Activity of Aptamer Against TGF-β1-2 Whether or not the nucleic acids of SEQ ID NOs: 6, 9, 19, 21, 26 inhibit the binding of TGF-β1 to the TGF-β receptor was evaluated by surface plasmon resonance method. For the measurement, Biacore T200 manufactured by GE Healthcare was used, and the measurement was performed by the method shown below. About 1500 RU of protein A was immobilized on the surface of a sensor chip of CM4 chip by using an amine coupling kit. 20 μL of Fc fusion TRII receptor (R&D) adjusted to 30 nM was injected as an analyte at a flow rate of 20 μL/min. As a result, the Fc fusion TRII receptor was immobilized on the surface of the sensor chip of the CM4 chip via protein A. Furthermore, a mixed solution of TGF-β1 (4 nM) or TGF-β1 (10 nM), and nucleic acid (30 nM) was injected. Solution A was used as the running buffer. Based on the RU value of a sample injected with TGF-β1 alone and the RU value before injection of TGF-β1, the effect of suppressing an increase in the RU value when TGF-β1 was injected in the presence of nucleic acid was calculated as the effect of inhibiting the binding of TGF-β1 to the TRII receptor.

Row | Binder | binding signal
8 | B8 | 84.3 % inhibition
9 | B9 | 70.2 % inhibition
10 | B10 | 75 % inhibition

Each binder was assayed against T1, TGF-β1 (assay: cell_activity; 80 pM:312.5 pM). Settings: tags: Recombinant Human TGF-β1, Peprotech; chain copies: 2 (homodimer, inferred).
Experimental: (§2) Whether the nucleic acids of SEQ ID NOs: 4-13, 17-22, 26-28 inhibit the activity of TGF-β1 was evaluated by a cell assay system that monitors Smad signaling pathway known to be activated by the stimulation of TGF-β. To be specific, photinus luciferase equipped with SBE (Smad-binding element) in the promoter region was used as a reporter (pGL4.48[luc2P/SBE/Hygro] Vector, Promega KK). Together with this SBE-induced photinus luciferase reporter plasmid, a renillaluciferase expression plasmid (pGL4.74[hRluc/TK] Vector, Promega KK) was mixed at a ratio of 20:1 as a standardized control for transfection efficiency, and transfected into HEK293 cells. The transfected HEK293 cells were re-seeded in a 96-well plate and cultured until confluent. TGF-β1 and a mixture of nucleic acid aptamers of SEQ ID NOs: 4-13, 17-22, 26-28 synthesized using T7 RNA polymerase (Y639F) were added thereto to respective final concentrations of 80 pM, 20 nM, and the cells were cultured for 3 hr. Thereafter, the expression levels of photinus luciferase and renillaluciferase were confirmed using Dual-Luciferase (registered trade mark) Reporter Assay System (Promega KK). The measurement value of photinus luciferase in each sample was corrected with the measured value of renillaluciferase, and the relative expression level of each sample was calculated by setting the ratio of photinus luciferase and renillaluciferase in a sample free of addition of TGF-β1 as 1. […] When a nucleic acid pool of 35N, 40N or 50N (SEQ ID NO: 14, 1, 23) was used as a negative control and a known TGF-β antibody (R&D, MAB1835) was used as a positive control, the same treatment and measurement were performed.
Whether or not these nucleic acids inhibit the activity of TGF-β1 was evaluated by adding to the final concentrations of TGF-β1 (80 pM) and nucleic acid (312.5 pM), and by a luciferase reporter assay as in Example 4.

Row | Binder | activity
11 | GGCAUAAGGGAGGGGAGACUUGUGGUGGGCAAG (ssRNA, 2'-F all pyrimidines (U,C)) [SEQ ID NO: 45] | 65.5 % inhibition
12 | GGCAUAAGGGCGGGGAGACUUGUGGUGGGCAAG (ssRNA, 2'-F all pyrimidines (U,C)) [SEQ ID NO: 47] | 70.3 % inhibition
13 | GGCAUAAGGGUGGGGAGACUUGUGGUGGGCAAG (ssRNA, 2'-F all pyrimidines (U,C)) [SEQ ID NO: 46] | 57.3 % inhibition
14 | GGCAUAAGGGAGGGGAGACUUGUGGCGGGUAAA (ssRNA, 2'-F all pyrimidines (U,C)) [SEQ ID NO: 48] | 63.9 % inhibition
15 | GGCAUAAGGGUGGGGAGACUUGUGGAGGGCAAG (ssRNA, 2'-F all pyrimidines (U,C)) [SEQ ID NO: 43] | 71.5 % inhibition
16 | GGCAUAAGGGCGGGGAGACUUGUGGAGGGCAAG (ssRNA, 2'-F all pyrimidines (U,C)) [SEQ ID NO: 44] | 69.4 % inhibition

The binders below were run against T1, TGF-β1 (assay: cell_activity; 80 pM:20 nM). Settings: tags: Recombinant Human TGF-β1, Peprotech; chain copies: 2 (homodimer, inferred); G4 (predicted).
Experimental: as §2
Whether or not these nucleic acids inhibit the activity of TGF-β1 was evaluated by a luciferase reporter assay similar to that in Example 4, as in Example 1.

Row | Binder | activity
17 | B11 | 101 % inhibition
18 | B12 | 100 % inhibition
19 | B13 | 100 % inhibition
20 | B14 | 100 % inhibition
21 | B15 | 100 % inhibition

What follows are binders tested against T1, TGF-β1 (assay: SPR; receptor-binding inhibition, 4 nM:4 nM). Settings: tags: Recombinant Human TGF-β1, Peprotech; chain copies: 2 (homodimer, inferred).
Experimental: as §1
The nucleic acids of SEQ ID NOs: 42-48 used were chemically synthesized and purified by HPLC. Whether or not these nucleic acids inhibit the binding of TGF-β1 to the TGF-β receptor was determined by injecting a mixed solution of TGF-β1 (4 nM) and nucleic acid (4 nM) in the same manner as in Example 4, and evaluating by the surface plasmon resonance method.

Row | Binder | binding signal
22 | GGCAUAAGGGAGGGGAGACUUGUGGUGGGCAAG (ssRNA, 2'-F all pyrimidines (U,C)) [SEQ ID NO: 45] | 99.2 % inhibition
23 | GGCAUAAGGGCGGGGAGACUUGUGGUGGGCAAG (ssRNA, 2'-F all pyrimidines (U,C)) [SEQ ID NO: 47] | 99.2 % inhibition
24 | GGCAUAAGGGUGGGGAGACUUGUGGUGGGCAAG (ssRNA, 2'-F all pyrimidines (U,C)) [SEQ ID NO: 46] | 99.2 % inhibition
25 | GGCAUAAGGGAGGGGAGACUUGUGGCGGGUAAA (ssRNA, 2'-F all pyrimidines (U,C)) [SEQ ID NO: 48] | 93.5 % inhibition
26 | GGCAUAAGGGUGGGGAGACUUGUGGAGGGCAAG (ssRNA, 2'-F all pyrimidines (U,C)) [SEQ ID NO: 43] | 99 % inhibition
27 | GGCAUAAGGGCGGGGAGACUUGUGGAGGGCAAG (ssRNA, 2'-F all pyrimidines (U,C)) [SEQ ID NO: 44] | 98.7 % inhibition

These binders were tested against T1, TGF-β1 (assay: cell_activity; SBE-luciferase HEK293, 80 pM:20 nM). Settings: tags: Recombinant Human TGF-β1, Peprotech; chain copies: 2 (homodimer, inferred).
Experimental: as §2

Row | Binder | activity
28 | B8 | 81 % inhibition
29 | B16 | 63 % inhibition
30 | B9 | 80 % inhibition
31 | B17 | 91 % inhibition
32 | B10 | 98 % inhibition
